In US20090104146A1:

Biological target: gp130/OSMRβ receptor complex (type II OSM receptor) on NHEK (human) (UniProt P40189)
Experiment: cell-based or functional assay

Chain of gp130/OSMRβ receptor complex (type II OSM receptor) on NHEK (human) (P40189 23-918, chain 1 of 2): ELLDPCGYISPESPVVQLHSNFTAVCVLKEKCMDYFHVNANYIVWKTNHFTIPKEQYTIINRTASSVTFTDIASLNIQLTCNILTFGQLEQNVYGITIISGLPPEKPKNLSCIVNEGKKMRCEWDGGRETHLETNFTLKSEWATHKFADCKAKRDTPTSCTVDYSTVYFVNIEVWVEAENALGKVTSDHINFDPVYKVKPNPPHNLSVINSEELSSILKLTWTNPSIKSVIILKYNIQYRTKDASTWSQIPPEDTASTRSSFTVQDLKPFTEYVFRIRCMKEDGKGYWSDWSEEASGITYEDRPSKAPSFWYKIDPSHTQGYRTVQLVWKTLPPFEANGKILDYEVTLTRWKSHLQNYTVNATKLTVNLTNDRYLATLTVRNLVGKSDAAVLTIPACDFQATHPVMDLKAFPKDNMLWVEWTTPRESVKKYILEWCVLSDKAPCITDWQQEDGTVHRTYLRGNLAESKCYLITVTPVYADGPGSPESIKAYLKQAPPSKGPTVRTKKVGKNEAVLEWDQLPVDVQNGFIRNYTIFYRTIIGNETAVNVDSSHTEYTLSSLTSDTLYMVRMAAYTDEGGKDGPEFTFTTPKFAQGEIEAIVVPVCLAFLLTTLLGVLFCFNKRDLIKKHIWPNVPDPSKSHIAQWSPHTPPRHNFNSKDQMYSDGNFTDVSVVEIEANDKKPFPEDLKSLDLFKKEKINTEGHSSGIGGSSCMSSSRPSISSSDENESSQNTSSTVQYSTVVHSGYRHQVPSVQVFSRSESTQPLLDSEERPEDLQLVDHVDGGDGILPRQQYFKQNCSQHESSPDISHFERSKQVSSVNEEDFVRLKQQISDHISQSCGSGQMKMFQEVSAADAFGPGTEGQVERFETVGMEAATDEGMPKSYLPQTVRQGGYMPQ
Chain of gp130/OSMRβ receptor complex (type II OSM receptor) on NHEK (human) (Q99650 28-979, chain 2 of 2, further chain): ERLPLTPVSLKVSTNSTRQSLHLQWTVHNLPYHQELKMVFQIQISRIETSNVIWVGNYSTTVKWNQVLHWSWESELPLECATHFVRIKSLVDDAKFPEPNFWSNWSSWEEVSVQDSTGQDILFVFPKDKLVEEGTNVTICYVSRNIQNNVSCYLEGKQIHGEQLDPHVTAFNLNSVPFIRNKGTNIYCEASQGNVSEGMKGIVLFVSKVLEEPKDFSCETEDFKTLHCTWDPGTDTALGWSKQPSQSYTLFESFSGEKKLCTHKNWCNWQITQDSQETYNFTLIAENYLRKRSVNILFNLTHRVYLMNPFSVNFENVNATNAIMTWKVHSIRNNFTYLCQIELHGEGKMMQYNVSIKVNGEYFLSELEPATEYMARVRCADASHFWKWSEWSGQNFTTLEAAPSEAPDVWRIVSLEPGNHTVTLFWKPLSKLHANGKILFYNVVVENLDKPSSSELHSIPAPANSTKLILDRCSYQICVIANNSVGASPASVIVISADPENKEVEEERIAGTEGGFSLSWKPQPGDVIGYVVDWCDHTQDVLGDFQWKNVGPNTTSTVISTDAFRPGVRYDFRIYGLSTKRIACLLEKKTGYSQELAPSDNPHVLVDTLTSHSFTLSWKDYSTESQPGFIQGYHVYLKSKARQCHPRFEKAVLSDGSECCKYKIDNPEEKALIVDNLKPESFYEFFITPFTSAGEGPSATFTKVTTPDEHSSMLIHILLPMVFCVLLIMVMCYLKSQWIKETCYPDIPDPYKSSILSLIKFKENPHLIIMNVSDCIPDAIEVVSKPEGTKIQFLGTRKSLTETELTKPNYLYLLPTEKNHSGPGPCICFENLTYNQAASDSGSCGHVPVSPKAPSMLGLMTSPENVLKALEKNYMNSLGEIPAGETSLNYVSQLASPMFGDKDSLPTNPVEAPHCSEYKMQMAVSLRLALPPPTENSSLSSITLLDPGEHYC

Human recombinant oncostatin M (OSM) (from UniProt P13725 26-221) (ligand)
tyrosine phosphorylation of STAT3 in NHEK (Western blot): 3 ng/mL
